The record followed here is publication PMC9873692 (2023).

The term Kd denotes the concentration at which binding is half-saturated. Higher therefore signals a looser complex.

First the molecules themselves.
B2: P2 domain of the histidine kinase CheA (domain or fragment)
chain: GFKTFYIKVILKEGTQLKSARIYLVFHKLEELKCEVVRTIPSVEEIEEEKFENEVELFVISPVDLEKLSEALSSIADIERVIIKEV
modifications: biotin (in vivo biotinylation, AviTag)

Among the targets are Cheytin 4; Cheytin 2; Cheytin 3; Cheytin 1.
Test in all cases: ITC
(In general: ITC needs no label: the signal is the heat of the interaction.)

In experiment [1] the target is B2.

B1: CheY protein from Thermotoga maritima (natural protein)
chain: MGKRVLIVDDAAFMRMMLKDIITKAGYEVAGEATNGREAVEKYKELKPDIVTMDITMPEMNGIDAIKEIMKIDPNAKIIVCSAMGQQAMVIEAIKAGAKDFIVKPFQPSRVVEALNKVSK
As to B1, the Kd in experiment [1] amounted to 150 nM.

Turning to B2, the Kd with Cheytin 4 is 490 nM; in the experiment with Cheytin 2 it was 110 nM; in the experiment with Cheytin 3 it was 660 nM; with Cheytin 1 it was 220 nM.
